We go through 34 variants from the Human Domainome abundance scans (Beltran et al. 2025).

First the molecules themselves.
B1: GA-binding protein alpha chain, residues 172 to 250; numbered along this chain, Q06546 (parent)
chain: GYRKEQERLGIPYDPIQWSTDQVLHWVVWVMKEFSMTDIDLTTLNISGRELCSLNQEDFFQRVPRGEILWSHLELLRKY

± gives the uncertainty stated by the source.

In the data set the parent is B1. The data set can be described thus: abundance fitness (aPCA) (normalised: wild type 0, dead -1); higher = more abundant; growth selection in yeast, the domain comes from the species named. The note with it: Homo sapiens.
With GYRKEQERLGIPYDPIQWSTDQVLHWVVWVMKEGSMTDIDLTTLNISGRELCSLNQEDFFQRVPRGEILWSHLELLRKY [F34G], the abundance fitness is -0.117 ± 0.033.
The figure for GYRKEQERLGIPYDPIQWSTDQVLHWVVWVMKEPSMTDIDLTTLNISGRELCSLNQEDFFQRVPRGEILWSHLELLRKY [F34P] is -0.605 ± 0.056.
With GYRKEQERLGIPYDPIQWSTDQVLHWVVWVMKEKSMTDIDLTTLNISGRELCSLNQEDFFQRVPRGEILWSHLELLRKY [F34K] the figure was 0.015 ± 0.072; with GYRKEQERLGIPYDPIQWSTDQVLHWVVWVMKELSMTDIDLTTLNISGRELCSLNQEDFFQRVPRGEILWSHLELLRKY [F34L], -0.145 ± 0.039; with GYRKEQERLGIPYDPIQWSTDQVLHWVVWVMKEASMTDIDLTTLNISGRELCSLNQEDFFQRVPRGEILWSHLELLRKY [F34A], -0.031 ± 0.037.
Consider GYRKEQERLGIPYDPIQWSTDQVLHWVVWVMKEMSMTDIDLTTLNISGRELCSLNQEDFFQRVPRGEILWSHLELLRKY [F34M], for which the abundance fitness was -0.175 ± 0.056.
The figure for GYRKEQERLGIPYDPIQWSTDQVLHWVVWVMKEYSMTDIDLTTLNISGRELCSLNQEDFFQRVPRGEILWSHLELLRKY [F34Y] is 0.015 ± 0.098; for GYRKEQERLGIPYDPIQWSTDQVLHWVVWVMKEESMTDIDLTTLNISGRELCSLNQEDFFQRVPRGEILWSHLELLRKY [F34E] it is -0.056 ± 0.057; for GYRKEQERLGIPYDPIQWSTDQVLHWVVWVMKERSMTDIDLTTLNISGRELCSLNQEDFFQRVPRGEILWSHLELLRKY [F34R] it is -0.035 ± 0.032.
With GYRKEQERLGIPYDPIQWSTDQVLHWVVWVMKETSMTDIDLTTLNISGRELCSLNQEDFFQRVPRGEILWSHLELLRKY [F34T] the figure was -0.061 ± 0.054; with GYRKEQERLGIPYDPIQWSTDQVLHWVVWVMKEWSMTDIDLTTLNISGRELCSLNQEDFFQRVPRGEILWSHLELLRKY [F34W], -0.092 ± 0.047.
The figure for GYRKEQERLGIPYDPIQWSTDQVLHWVVWVMKECSMTDIDLTTLNISGRELCSLNQEDFFQRVPRGEILWSHLELLRKY [F34C] is -0.068 ± 0.068; for GYRKEQERLGIPYDPIQWSTDQVLHWVVWVMKESSMTDIDLTTLNISGRELCSLNQEDFFQRVPRGEILWSHLELLRKY [F34S] it is -0.063 ± 0.044; for GYRKEQERLGIPYDPIQWSTDQVLHWVVWVMKENSMTDIDLTTLNISGRELCSLNQEDFFQRVPRGEILWSHLELLRKY [F34N] it is 0.081 ± 0.066.
Turning to GYRKEQERLGIPYDPIQWSTDQVLHWVVWVMKEQSMTDIDLTTLNISGRELCSLNQEDFFQRVPRGEILWSHLELLRKY [F34Q], the abundance fitness was -0.012 ± 0.08.
The figure for GYRKEQERLGIPYDPIQWSTDQVLHWVVWVMKEHSMTDIDLTTLNISGRELCSLNQEDFFQRVPRGEILWSHLELLRKY [F34H] is 0.077 ± 0.073; for GYRKEQERLGIPYDPIQWSTDQVLHWVVWWMKEFSMTDIDLTTLNISGRELCSLNQEDFFQRVPRGEILWSHLELLRKY [V30W] it is -0.339 ± 0.052; for GYRKEQERLGIPYDPIQWSTDQVLHWVVWYMKEFSMTDIDLTTLNISGRELCSLNQEDFFQRVPRGEILWSHLELLRKY [V30Y] it is -0.492 ± 0.096.
In the case of GYRKEQERLGIPYDPIQWSTDQVLHWVVWVMVEFSMTDIDLTTLNISGRELCSLNQEDFFQRVPRGEILWSHLELLRKY [K32V], the abundance fitness is -0.36 ± 0.044.
The figure for GYRKEQERLGIPYDPIQWSTDQVLHWVVWVMEEFSMTDIDLTTLNISGRELCSLNQEDFFQRVPRGEILWSHLELLRKY [K32E] is -0.024 ± 0.053.
With GYRKEQERLGIPYDPIQWSTDQVLHWVVWVMPEFSMTDIDLTTLNISGRELCSLNQEDFFQRVPRGEILWSHLELLRKY [K32P] the figure was -0.734 ± 0.09; with GYRKEQERLGIPYDPIQWSTDQVLHWVVWVMREFSMTDIDLTTLNISGRELCSLNQEDFFQRVPRGEILWSHLELLRKY [K32R], -0.024 ± 0.041.
Take GYRKEQERLGIPYDPIQWSTDQVLHWVVWVMCEFSMTDIDLTTLNISGRELCSLNQEDFFQRVPRGEILWSHLELLRKY [K32C]: the abundance fitness is -0.188 ± 0.077.
With GYRKEQERLGIPYDPIQWSTDQVLHWVVWVMIEFSMTDIDLTTLNISGRELCSLNQEDFFQRVPRGEILWSHLELLRKY [K32I] the figure was -0.582 ± 0.13; with GYRKEQERLGIPYDPIQWSTDQVLHWVVWVMMEFSMTDIDLTTLNISGRELCSLNQEDFFQRVPRGEILWSHLELLRKY [K32M], -0.261 ± 0.059; with GYRKEQERLGIPYDPIQWSTDQVLHWVVWVMYEFSMTDIDLTTLNISGRELCSLNQEDFFQRVPRGEILWSHLELLRKY [K32Y], -0.172 ± 0.082.
GYRKEQERLGIPYDPIQWSTDQVLHWVVWVMAEFSMTDIDLTTLNISGRELCSLNQEDFFQRVPRGEILWSHLELLRKY [K32A]: the abundance fitness is -0.141 ± 0.044.
With GYRKEQERLGIPYDPIQWSTDQVLHWVVWVMNEFSMTDIDLTTLNISGRELCSLNQEDFFQRVPRGEILWSHLELLRKY [K32N] the figure was -0.024 ± 0.14; with GYRKEQERLGIPYDPIQWSTDQVLHWVVWVMWEFSMTDIDLTTLNISGRELCSLNQEDFFQRVPRGEILWSHLELLRKY [K32W], -0.419 ± 0.039.
The figure for GYRKEQERLGIPYDPIQWSTDQVLHWVVWVMSEFSMTDIDLTTLNISGRELCSLNQEDFFQRVPRGEILWSHLELLRKY [K32S] is -0.079 ± 0.046; for GYRKEQERLGIPYDPIQWSTDQVLHWVVWVMTEFSMTDIDLTTLNISGRELCSLNQEDFFQRVPRGEILWSHLELLRKY [K32T] it is -0.01 ± 0.059; for GYRKEQERLGIPYDPIQWSTDQVLHWVVWVMLEFSMTDIDLTTLNISGRELCSLNQEDFFQRVPRGEILWSHLELLRKY [K32L] it is -0.443 ± 0.052.
For the variant GYRKEQERLGIPYDPIQWSTDQVLHWVVWVMQEFSMTDIDLTTLNISGRELCSLNQEDFFQRVPRGEILWSHLELLRKY [K32Q], the abundance fitness is -0.061 ± 0.067.
The figure for GYRKEQERLGIPYDPIQWSTDQVLHWVVWVMFEFSMTDIDLTTLNISGRELCSLNQEDFFQRVPRGEILWSHLELLRKY [K32F] is -0.41 ± 0.085.
